Holding throughout (assay): EMSA
A general note: A gel shift assay detects complexes by their altered migration in electrophoresis.

One series addresses T1, DMP1α (DMTF1 isoform α) (human, UniProt Q9Y222 1-760).
T1 sequence: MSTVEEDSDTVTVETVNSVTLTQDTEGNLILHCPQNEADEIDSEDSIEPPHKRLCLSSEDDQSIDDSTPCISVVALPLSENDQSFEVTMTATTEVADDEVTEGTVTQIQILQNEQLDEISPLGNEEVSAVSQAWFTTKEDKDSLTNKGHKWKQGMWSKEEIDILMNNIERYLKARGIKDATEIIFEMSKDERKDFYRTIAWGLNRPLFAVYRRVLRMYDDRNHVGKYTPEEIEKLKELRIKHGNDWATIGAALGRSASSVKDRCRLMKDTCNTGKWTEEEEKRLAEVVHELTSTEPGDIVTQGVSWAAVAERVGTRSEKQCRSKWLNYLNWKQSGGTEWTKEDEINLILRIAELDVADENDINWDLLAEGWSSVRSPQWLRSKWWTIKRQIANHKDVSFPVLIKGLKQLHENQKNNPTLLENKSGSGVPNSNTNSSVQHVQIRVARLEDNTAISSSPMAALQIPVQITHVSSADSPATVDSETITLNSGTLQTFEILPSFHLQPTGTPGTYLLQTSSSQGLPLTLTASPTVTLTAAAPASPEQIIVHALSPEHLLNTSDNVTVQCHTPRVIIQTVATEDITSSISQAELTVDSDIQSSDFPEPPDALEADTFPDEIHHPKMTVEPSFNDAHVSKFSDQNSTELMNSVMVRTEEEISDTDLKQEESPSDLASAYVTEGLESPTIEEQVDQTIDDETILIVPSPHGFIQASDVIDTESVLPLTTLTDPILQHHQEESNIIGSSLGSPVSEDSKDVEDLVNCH

In another series the target is T2, DMP1γ (DMTF1 isoform γ) (human, UniProt Q9Y222-3 1-285).
T2 sequence: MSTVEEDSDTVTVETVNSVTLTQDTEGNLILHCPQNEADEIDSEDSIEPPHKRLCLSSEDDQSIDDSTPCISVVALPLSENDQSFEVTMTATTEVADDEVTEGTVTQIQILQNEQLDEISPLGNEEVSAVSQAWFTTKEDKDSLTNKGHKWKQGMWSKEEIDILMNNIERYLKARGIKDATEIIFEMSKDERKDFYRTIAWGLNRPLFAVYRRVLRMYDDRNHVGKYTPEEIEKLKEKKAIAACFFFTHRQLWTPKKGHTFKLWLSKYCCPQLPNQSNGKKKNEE

Another series deals with T3, DMP1β (DMTF1 isoform β) (human, UniProt Q9Y222-2 1-272).
T3 sequence: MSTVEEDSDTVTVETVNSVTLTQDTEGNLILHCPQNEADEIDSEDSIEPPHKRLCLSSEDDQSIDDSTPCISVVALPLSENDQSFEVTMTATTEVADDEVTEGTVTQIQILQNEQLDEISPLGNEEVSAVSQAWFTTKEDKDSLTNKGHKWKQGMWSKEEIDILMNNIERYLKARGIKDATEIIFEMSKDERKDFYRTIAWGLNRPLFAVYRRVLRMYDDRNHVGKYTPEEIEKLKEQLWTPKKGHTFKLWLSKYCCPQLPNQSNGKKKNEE

Another series deals with T4, DMP1 ΔMHR (human, UniProt Q9Y222 1-223).
T4 sequence: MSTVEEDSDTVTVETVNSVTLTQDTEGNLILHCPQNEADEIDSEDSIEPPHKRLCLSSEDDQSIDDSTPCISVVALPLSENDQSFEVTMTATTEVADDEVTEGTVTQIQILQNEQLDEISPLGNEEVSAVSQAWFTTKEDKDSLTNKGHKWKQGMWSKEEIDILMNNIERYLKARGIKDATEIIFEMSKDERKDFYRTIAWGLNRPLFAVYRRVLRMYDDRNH

The results in this text go back to paper PMC4687731.

B1: human ARF promoter DMP1 site probe (dsDNA)
DNA 1: GTCAGGTGACGGATGTAGCTAGG
DNA 2: CCTAGCTACATCCGTCACCTGAC
As for B1, the binding result with DMP1α (DMTF1 isoform α) is given as “binds”; with DMP1γ (DMTF1 isoform γ), “no binding”; with DMP1β (DMTF1 isoform β) it was “no binding”; in the series with DMP1 ΔMHR, “no binding”.
